# B1: TPR t1 (parent)
# chain: GACCAAUCUGCCCUCAGAGCUCGAGAACAUCUUCGGAUGCAGAGGAGGCAGGCUUCGGUGGCGCGAUAGCGCCAACGUCCUCAACCUCCAAUGCAUCCCACCACAUGAUGAUGCCUGAAGAGCCUUGGUUUUUUG
# Variants of: B1
# Assay: polymerase ribozyme fitness, log enrichment relative to wild type (log ratio); higher = more active; in vitro selection for triplet polymerase activity
# Procedure, shortened: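 PCR was used to build mutant libraries for each subunit of a heterodimeric triplet polymerase ribozyme, which were then transcribed. A single in vitro selection round, in triplicate, used a frozen incubation at −7 °C and recovered extended constructs by gel excision, streptavidin beads and RT-PCR. Fitness is the logarithm of genotype enrichment relative to wild-type enrichment, averaged over replicates with inverse-variance weights. The logarithm is base 2, and after Illumina sequencing only genotypes with ≥10 input reads and ≥1 read per output were kept.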
row,Variant,polymerase ribozyme fitness (log ratio)
1,G48U A95U G117U,-3.3
2,G48A G93C C114A,-2.27
3,G48A A68G,-2.51
4,G48A C88A G113U G120A,-4.63
5,G47U U78G U96A,-1.79
6,G48A C85G C115U,-2.75
7,G47U G51A G61U C79G G93A G113C C114G,-6.6
8,G48C C49A C56U U87A U96A G120C,-2.17
9,G48A C80G A95C U109G,-7.79
10,G48A C53G U55C C56A,-0.815
11,G48A C72U C101G U133A,-2.79
12,G48U C70U C86U G113A,-2.66
13,G48C U133G,-1.8
14,G48C U78A A111U C123A U129A,-6.15
15,G47U C97A,-5.54
16,G47C U112A,-0.857
17,G48U C62U G71C U96A,-2.08
18,G48C C49U A111U U133A,-4.49
19,G48C C79U,-1.34
20,G48A U96A,-1.94
21,G48A U59A C79U U125G U130G,-1.48

row,Variant,polymerase ribozyme fitness (log ratio)
1,G48A C70U G71U,-0.828
2,G48U A121C,-0.0339
3,G47U C72G G117U,-5.24
4,G48A G63U C88U,-1.66
5,G48A C88U,-0.667
6,G48C A103G,-5.44
7,G48A C115U,-1.61
8,G48A C115A,-1.47
9,G48C G69A,-3.69
10,G47U C49G C62U C88A A95C C123A,-4.59
11,G47C U126A,-4.53
12,G48C A90U U112A,-0.162
13,G48C A90U U112G,-2.32
14,G48A A84C C86U U87G G117A G128U,-6.08
15,G48C C123G,0.677
16,G47U C79G A100G C114G,-6.83
17,G47U G69U U131A,-1.3
18,G48C G110C U116G A119G C123A,-5.26
19,G48A C72G G77A U78A C79A G120A U130A,-2.79
20,G47U G61A,-0.861
21,G47C U81G G93A C101U,-5.71

row,Variant,polymerase ribozyme fitness (log ratio)
1,G48A G69U C98G U125A U131C,-3.58
2,G48U C72G U96C,-1.54
3,G48C G113U C123A,-4.5
4,G48A G71A,-1.09
5,G48C G127C,-1.62
6,G47U U87G G120A,-1.99
7,G47U C62U G71U C82A A95U,-3.36
8,G48A C124U U133G,0.41
9,G48C C56G C62U U78C,-1.82
10,G48U C56A C102U,-2.75
11,G47U G110C,-5.49
12,G47U C64A C80G U87G C88A U112A,-6.27
13,G47U U106C,-1.89
14,G47U C64A A121U,-4.82
15,G48A G113U G120U,-3.65
16,G48A U81A C98U,-2.94
17,G48U A66G C86A U125G G127C,-3.31
18,G48A C64G U81A C89A,-7.34
19,G47U C80U C124A U131G G135A,-0.0494
20,G48A G113C,-2.26
21,G48A U131A,-0.843

row,Variant,polymerase ribozyme fitness (log ratio)
1,G48A C101U G117C U129C,-6.15
2,G47C U78A A105C G120C U130C,-3.11
3,G48A A50C U78A A119G G120C,0.118
4,G48C C53U U54C U81A,-2.99
5,G48A C79U U92G U116C G120C,-5.27
6,G48A A66U,-2.3
7,G48C G60A C94G C115U,-3.74
8,G47U C72A C76A,-1.85
9,G48A C89G A95G,-3.06
10,G47U C80A,-5.8
11,G48C C49A A50G G52C C53U C86G C94U C114A,-3.63
12,G47U,-1.72
13,G48A A95U,-1.28
14,G48U C53G C86U C98A C123G C124A,-5.23
15,G48C G63A G113A U126C,-3.69
16,G48C A50G C53U C73G,-1.36
17,G48C U106A,0.0361
18,G48A C97A U112C,-2.48
19,G48A A50C A84G,-0.336
20,G47U C70G,-6.87

# From the RNAGym collection of RNA variant scans (doi:10.1073/pnas.2313332121)
